# Data taken from patent publication US9187558B2, “Anti-epithelial cell adhesion molecule (EpCAM) antibodies and methods of use thereof” (ACADEMIA SINICA, priority 2012, dated 2015).
# Where a chain is given by its changes, count along the chain named.
# B1: EpAb2-6: one of five newly generated anti-EpCAM mAbs; VH SEQ ID NO: 2, VL SEQ ID NO: 3 (antibody, listed as Homo sapiens, V domains shown)
# VH: EVQLVESGPELKKPGETVKISCKASGYTFTDYSMHWVKQAPGKGLKWMGWINTETGEPTFADDFKGRFAFSLETSARTTYLQINNLKNEDTATYFCARTAVYWGQGTSLTVSS
# VL: DIQLTQSPSSLSASLGERVSLTCRASQEISVSLSWLQQKPDGTIKRLIYATSTLDSGVPKRFSGSRSGSDYSLTISSLESEDFADYYCLQYASYPWTFGGGTKLEIKRADAAPTVS
# B2: hEpAb2-6: CDRs of EpAb2-6 grafted onto human IgG1 backbone; VH SEQ ID NO: 24, VL SEQ ID NO: 25 (antibody, V domains shown)
# VH: VKLQESGPELKKPGETVKISCKASGYTFTDYSMHWVKQAPGKGLKWMGWINTETGEPTYADDFKGRFAFSLETSASTAYLQINNLKNEDTATYFCARTAVYWGQGTTVTVSS
# VL: B1 VL with L4M, K39E, A84V
# modifications: human IgG1 backbone; Humanized VH domain; Humanized VL domain
# B3: sEpEX: soluble extracellular domain of EpCAM (protein, UniProt P16422 24-265, looked up)
# extracellular domain: QEECVCENYKLAVNCFVNNNRQCQCTSVGAQNTVICSKLAAKCLVMKAEMNGSKLGRRAKPEGALQNNDGLYDPDCDESGLFKAKQCNGTSMCWCVNTAGVRRTDKDTEITCSERVRTYWIIIELKHKAREKPYDSKSLRTALQKEITTRYQLDPKFITSILYENNVITIDLVQNSSQKTQNDVDIADVAYYFEKDVKGESLFHSKKMDLTVNGEQLDLDPGQTLIYYVDEKAPEFSMQGLK
# modifications: extracellular domain
# notes: soluble extracellular domain of EpCAM
# How the values were obtained:
# HCT116 sphere cells = test: Spheroid (tumorsphere formation) assay; assay type: cell-based, human
# Protocol: Spheroid Assay. For spheroid formation, culture cells were disassociated into single cells. 5×10^3 cells were seeded at an ultra-low 6-well plate (CORNING™ for 6 days and were maintained in DMEM/F12 supplemented with B27 (INVITROGEN®), EGF (10 ng/ml) and FGF (25 ng/ml) twice a week. The spheres were counted under a microscope. For serum-induced differentiation assay, tumorspheres were cultured in matrigel-coated plate supplemented with DMEM containing 10% FBS for 7 days to induce the differentiation process.
# [1] = system: vimentin, snail, and slug; test: EMT gene expression; assay type: cell-based, human
# Protocol: (§1) Immunoprecipitation and Western Blot Analysis. […] The supernatants were immunoprecipitated using anti-EpCAM antibodies.
# RNA Extraction and Quantitative Real-Time RT-PCR. Total RNAs were prepared from the cell lines using ULTRASPEC RNA isolation reagent (Biotecx Laboratories, Houston, Tex.). cDNAs were reverse-transcribed using Super-Script III RNaseH-reverse transcriptase (INVITROGEN®, Carlsbad, Calif.) according to the manufacturer's instructions. Quantitative RT-PCR was performed by using the LightCycler480 System (Roche Applied Science). The gene expression level of each sample was normalized to the expression level of GAPDH in the same sample. The reactions were performed in triplicate, and S.D. values were calculated.
# release of EpEX = test: Release of EpEX into HCT116 culture supernatants (immunoprecipitation and Western blot); assay type: cell-based, human; conditions: HCT116 cells, 24 h; DAPT 50 μM, TAPI 40 μM
# From the text: as §1
# tumor invasiveness = test: Invasion assay (Matrigel transwell); assay type: cell-based
# Protocol: Colony Formation and Invasion Assay. For colony formation assay, cells were seeded at a density of 5×10^3 in 6-well plate for 10 day, followed by fixing and staining with crystal violet. For invasion assay, cells (1×10^5) were seeded at a transwell insert (8-μm polycarbonate Nucleopore filters, Corning) coated with Matrigel (BD Biosciences) at room temperature for 30 min to form a genuine reconstituted basement membrane. After 24 h incubation, cells were fixed with methanol for 10 min, and non-invaded cells were then removed by cotton swap. The invaded cells were observed by staining with DAPI, imaged under an inverted fluorescent microscopy (Zeiss), and quantified by ImageJ software.
# [2] = system: c-MYC, OCT4, NANOG, and SOX2 promoters; test: Luciferase reporter assay of reprogramming gene promoters; assay type: cell-based, human
# Protocol: Luciferase Reporter Assay. Cells were seeded in a plate and co-transfected with pcDNA3.1, EpCAM, EpICD, or EpEX-expressing vectors (400 ng) and pGL4-Oct4-Luc, Nanog-Luc, Sox2-Luc, or c-Myc-Luc-expressing plasmid (100 ng) by PolyJET for 24 h. Promoter activities were measured by the Dul-Glo Luciferase kit (Promega), and the transfected efficiency was normalized by co-transfection with pRL-TK (20 ng) as an internal control.
# EpICD cleavage = EpICD cleavage and cellular localization (confocal immunofluorescence, Western blot); assay type: cell-based, human; conditions: for EpICD cleavage: 24 h, TAPI 40 μM
# Protocol: Immunofluorescent Staining. Cells cultured on cover slips were fixed in paraformaldehyde, washed, and then blocked with 1% bovine serum albumin in PBS for 10 min. Cells were incubated at room temperature with primary antibodies in 1% bovine serum albumin. After 1 h incubation, cells were washed and incubated with fluorescein isothiocyanate (FITC) goat anti-mouse antibody (Jackson ImmunoResearch Laboratories), Alexafluor488 goat-anti-mouse or Alexaflour568 goat-anti-rabbit (INVITROGEN®) antibodies. 4′,6-Diamidino-2-phenylindole (DAPI) was added for nuclear counter staining.
# as §1
# [3] = system: HCT116 and tumorsphere (HCT116 sphere) cells; test: Hypodiploid DNA content by flow cytometry with PI staining; assay type: cell-based, human; conditions: tumor and tumorsphere cells
# Protocol: (§2) Apoptosis Assays. Cells were separately seeded and treated with 0-20 μg/ml mAbs for 6 h. Apoptotic cells were detected by Annexin V-FITC and PI and analyzed by a flow cytometer (BD imnmmunocytometry systems, San Jose, Calif.). Early apoptosis was measured with the Annexin V-FITC Apoptosis Detection kit II (BD Pharmingen, La Jolla, Calif.). Apoptotic nuclei were detected with propidium iodide (PI) staining.
# [4] = system: SAS and HCT116 cell lines; test: Apoptosis assay, Annexin V-FITC and PI flow cytometry; assay type: cell-based, human; conditions: 0-20 μg/ml, 6 h
# Protocol: as §2
# [5] = system: EpCAM mutants (Y95, D96 on EGF-II domain); conditions: mutations in positions Y95 or D96 on EGF-II domain; 1 μg/ml antibody
# Protocol: HEK293 cells at 80%-90% confluency in 6-well plates were transfected with plasmids of various EpCAMs. After two days transfection, the cells were washed with PBS. Cells were extracted with RIPA buffer, supplemented with a protease inhibitor mixture tablet and spun at 20,000 g for 30 min at 4° C. […] The signals were developed using enhanced chemiluminescence reagents (ECL) (Thermo Scientific, Rockford, Ill.).
# [6] = system: SAS-derived oral cancer xenografts; test: SAS-derived oral cancer xenograft antitumor efficacy; conditions: n=6
# Protocol: Animal Model for Analysis of Antitumor Efficacy. […] Treatments were administered through tail vein injection, 10 mg/kg twice a week, for 4 consecutive weeks, with a total dose of 80 mg/kg. […] The tumor volumes were calculated as length×(width)^2×0.52.
# CCD-1112Sk normal cells = test: Cellular ELISA binding to normal foreskin cells; parameters: species or system human
# [7] = system: human cancer cells (SAS, NPC039, HCT116, SKOV3); test: Cellular ELISA, Western blot and FACS binding to cancer cell lines; conditions: Western blot, FACS
# Protocol: ELISA. 96-well plates (Corning Costar, St. Louis, Mo.) were seeded with SAS (oral carcinoma), NPC, HCT116 (colon cancer), SKOV3 (ovarian cancer cell line), NNM and HUVEC cells. The plates fixed with 2% paraformaldehyde and blocked with 1% bovine serum albumin. OCAb9-1 was added to the plates and incubated for 1 h. The plates were then washed with PBS containing 0.1% (w/v) TWEEN® 20 (PBST0.1) and incubated with horseradish peroxidase-conjugated anti-mouse IgG (Jackson ImmunoResearch Laboratories) for another 1 h. After washing, the plates were incubated with substrate solution o-phenylenediamine dihydrochloride (SIGMA™). The reaction was stopped by adding 3 N HCl, and the plates were read using a microplate reader at 490 nm.
# Flow Cytometry. SAS, HCT116 and NNM were dissociated with 0.25% trypsin-EDTA (1 mM) (INVITROGEN®) for 1-3 min. Cells were washed with fluorescence-activated cell sorting buffer (PBS containing 1% fetal calf serum) and then incubated for 1 h at 4° C. in fluorescence-activated cell sorting buffer with the OCAb9-1 and EpAb mAbs at dilutions that ranged from […]. Phycoerythrin-conjugated goat anti-mouse IgG was used as a secondary antibody (dilution 1:250; Jackson ImmunoResearch Laboratories (West Grove, Pa.) for 30 min at 4° C. After the final wash, the cells were re-suspended with 1% FBS in PBS and analyzed by flow cytometry (BD, San Jose, Calif.). […]
# [8] = HCT116 cells, sEpEX 2.5, 5 μg/ml
molecule,measurement,setting,value
C[C@H](NC(=O)Cc1cc(F)cc(F)c1)C(=O)N[C@H](C(=O)OC(C)(C)C)c1ccccc1 [DAPT],sphere-forming capacity,HCT116 sphere cells,decreasing
same,"expressions of vimentin, snail, and slug",[1],suppressed
same,release of EpEX,release of EpEX,blocked the release of EpEX
same,tumor invasiveness,tumor invasiveness,decreasing
same,"EpCAM-induced transcriptional activities of c-MYC, OCT4, NANOG, and SOX2",[2],blocked
same,expression of soluble EpICD-v5 (10 kDa),EpICD cleavage; 293T/EpCAM-v5 cells,reduced
same,EpICD cleavage,"EpICD cleavage; HCT116 cells, DAPT 50 μM",inhibited EpICD cleavage
same,soluble EpICD signals in cytoplasm and nucleus,"EpICD cleavage; HCT116 cells, DAPT 50 μM",blocked
TAPI,release of EpEX,release of EpEX,blocked the release of EpEX
same,EpICD cleavage,"EpICD cleavage; HCT116 cells, DAPT 50 μM",inhibited EpICD cleavage
B1,hypodiploid DNA content,[3],induced hypodiploid DNA content
same,tumorsphere formation,HCT116 sphere cells; 6 days treatment,suppressed tumorsphere formation effectively
same,induction of cancer cell apoptosis,[4],could induce cancer cell apoptosis
same,relative binding activity to EpCAM mutants vs wild type,[5],markedly reduction
same,tumor size of control PBS group relative to EpAb2-6 group,[6]; 10 mg/kg i.v. twice a week,1.5 fold
same,median overall survival of tumor-bearing mice,[6]; SAS xenograft,71 days
B2,induction of cancer cell apoptosis,[4],induced cancer cell apoptosis
same,recognition of CCD-1112Sk normal cells,CCD-1112Sk normal cells,not CCD-1112Sk normal cells
same,recognition of (binding to) human cancer cells,[7],recognized both SAS and HCT116 cancer cells
B3,induction of vimentin expression,[1]; [8],inductions
same,"reporter activities of c-MYC, OCT4, NANOG, and SOX2","[2]; HCT116 cells, sEpEX 2 μg/ml",induced reporter activities
same,induction of EpICD cleavage,EpICD cleavage; [8],inductions
